The numbers were not newly measured in US12678516B2, “Immunostimulatory toll-like receptor agonist-nanoparticle for cancer immunotherapy” (The Board of Trustees of the Leland Stanford Junior …, priority 2021, dated 2026), which cites them from elsewhere.

Experiment in series [1]: not given
The source holds these as a separate data set.

For the substance “ipilimumab: fully humanized CTLA4 antibody”, the “grade Ill/IV enterocolitis, share of patients” value (10 mg/kg) is ~ 15%. Moreover, for the setting “CTLA-4 blockade, patients”, the “hepatitis (irAE)” value was 5-10%, the “hypophysitis (irAE)” value was 5%, the “leucopenia (irAE)” value is under 2% and the “pancreatitis (irAE)” value is recorded as under 2%. Also, for the setting “CTLA-4 blockade, patients”, the “rash/pruritus (irAE)” value is reported as over 50% and the “uveitis (irAE)” value was under 2%.
Turning to “Tremelimumab: fully humanized CTLA4 antibody”, the “toxicity with more frequent dosing” value in series [1] (10 mg/kg monthly vs 15 mg/kg every 3 months, phase II) was “doubled”. The “sustained plasma levels in patients with the majority of responses” value in series [1] (at one month) was over 30 µg/mL. Besides, in series [1] (single antibody infusion, doses 0.01 to 15 mg/kg), the “doses at which objective responses were evident” value is at least 3 mg/kg.
